Source: article PMC6349404, “Integrin alpha11 is an Osteolectin receptor and is required for the maintenance of adult skeletal bone mass” (eLife, 2019)

Tests used:
Experiment in all cases: ELISA; microtiter well binding assay; plates coated with 10 nM recombinant human Osteolectin, Pro-Collagen 1α or BSA overnight at 4°C, blocked with 10 mg/ml BSA; 6xHis tagged integrins in TBS (50 mM Tris-Cl pH 7.5, 150 mM NaCl) with 1 mM MnCl2; bound integrin detected with anti-His tag antibody and HRP secondary, OD 450 nm
Settings in all cases: both partners purified
[1] = target: recombinant human integrin αMβ2 (human, UniProt P11215 17-1104; P05107 23-700)
[2] = target: T1, recombinant human integrin α11β1 (human, UniProt Q9UKX5 23-1141; P05556 21-728)
T1 construct: integrin α11, human, chain of the recombinant heterodimer; integrin β1, human, chain of the recombinant heterodimer; also called α11β1 integrin; source: bought: R and D Systems

[3] = target: T2, recombinant human integrin α10β1 (human, UniProt O75578 23-1122; P05556 21-728)
T2 construct: integrin α10, human, chain of the recombinant heterodimer; integrin β1, human, chain of the recombinant heterodimer; source: bought: R and D Systems

[4] = target: T3, recombinant human integrin α4β1 (human, UniProt P13612 35-977; P05556 21-728)
T3 construct: integrin α4, human, chain of the recombinant heterodimer; integrin β1, human, chain of the recombinant heterodimer; source: bought: R and D Systems

[5] = target: T4, recombinant human integrin α9β1 (human, UniProt Q13797 30-981; P05556 21-728)
T4 construct: integrin α9, human, chain of the recombinant heterodimer; integrin β1, human, chain of the recombinant heterodimer; source: bought: R and D Systems
T4 sequence (Q13797 30-981, chain 1 of 2): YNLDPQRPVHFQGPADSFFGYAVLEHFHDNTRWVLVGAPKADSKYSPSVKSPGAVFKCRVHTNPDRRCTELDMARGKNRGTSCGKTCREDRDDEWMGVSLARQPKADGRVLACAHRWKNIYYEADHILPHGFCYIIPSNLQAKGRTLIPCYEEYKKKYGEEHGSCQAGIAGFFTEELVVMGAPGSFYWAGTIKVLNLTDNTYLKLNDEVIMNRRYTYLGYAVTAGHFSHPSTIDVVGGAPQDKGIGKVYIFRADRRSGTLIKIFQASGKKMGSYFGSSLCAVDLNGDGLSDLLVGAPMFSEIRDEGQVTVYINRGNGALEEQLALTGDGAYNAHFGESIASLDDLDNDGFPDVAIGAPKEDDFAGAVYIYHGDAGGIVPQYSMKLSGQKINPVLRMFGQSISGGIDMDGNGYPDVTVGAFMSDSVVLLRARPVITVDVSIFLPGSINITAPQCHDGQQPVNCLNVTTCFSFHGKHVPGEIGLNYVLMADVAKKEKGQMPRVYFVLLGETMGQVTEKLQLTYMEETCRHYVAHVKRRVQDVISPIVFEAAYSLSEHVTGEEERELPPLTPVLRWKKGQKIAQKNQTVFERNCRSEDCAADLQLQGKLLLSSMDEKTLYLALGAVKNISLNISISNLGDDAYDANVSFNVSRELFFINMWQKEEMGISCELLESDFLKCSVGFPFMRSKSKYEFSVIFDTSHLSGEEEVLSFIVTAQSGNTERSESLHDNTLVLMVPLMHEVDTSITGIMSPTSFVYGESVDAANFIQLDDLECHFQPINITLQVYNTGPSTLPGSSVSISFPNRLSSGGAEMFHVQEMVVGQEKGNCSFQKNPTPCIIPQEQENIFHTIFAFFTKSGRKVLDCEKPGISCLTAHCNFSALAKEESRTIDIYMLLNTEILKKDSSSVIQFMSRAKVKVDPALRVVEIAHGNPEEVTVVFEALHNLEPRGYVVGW
T4 sequence (P05556 21-728, chain 2 of 2): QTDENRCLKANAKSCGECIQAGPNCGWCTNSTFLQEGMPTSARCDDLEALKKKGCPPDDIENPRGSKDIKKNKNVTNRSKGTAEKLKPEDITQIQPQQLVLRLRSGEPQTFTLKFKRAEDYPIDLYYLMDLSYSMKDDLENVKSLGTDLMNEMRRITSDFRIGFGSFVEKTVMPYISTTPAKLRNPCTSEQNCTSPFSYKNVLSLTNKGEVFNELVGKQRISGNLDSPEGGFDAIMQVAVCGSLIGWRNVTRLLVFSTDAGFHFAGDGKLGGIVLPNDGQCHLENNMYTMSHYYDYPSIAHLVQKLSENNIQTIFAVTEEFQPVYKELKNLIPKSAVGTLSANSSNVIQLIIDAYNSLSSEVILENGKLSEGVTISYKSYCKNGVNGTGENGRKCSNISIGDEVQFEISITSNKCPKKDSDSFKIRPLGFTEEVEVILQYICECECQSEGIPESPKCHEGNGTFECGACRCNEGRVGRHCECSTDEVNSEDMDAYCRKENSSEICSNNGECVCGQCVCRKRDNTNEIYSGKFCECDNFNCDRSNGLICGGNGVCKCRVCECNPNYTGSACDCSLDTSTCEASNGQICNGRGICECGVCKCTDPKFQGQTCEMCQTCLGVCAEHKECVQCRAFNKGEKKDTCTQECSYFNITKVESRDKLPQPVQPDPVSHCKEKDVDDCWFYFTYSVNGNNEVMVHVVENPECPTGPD

T2 sequence (O75578 23-1122, chain 1 of 2): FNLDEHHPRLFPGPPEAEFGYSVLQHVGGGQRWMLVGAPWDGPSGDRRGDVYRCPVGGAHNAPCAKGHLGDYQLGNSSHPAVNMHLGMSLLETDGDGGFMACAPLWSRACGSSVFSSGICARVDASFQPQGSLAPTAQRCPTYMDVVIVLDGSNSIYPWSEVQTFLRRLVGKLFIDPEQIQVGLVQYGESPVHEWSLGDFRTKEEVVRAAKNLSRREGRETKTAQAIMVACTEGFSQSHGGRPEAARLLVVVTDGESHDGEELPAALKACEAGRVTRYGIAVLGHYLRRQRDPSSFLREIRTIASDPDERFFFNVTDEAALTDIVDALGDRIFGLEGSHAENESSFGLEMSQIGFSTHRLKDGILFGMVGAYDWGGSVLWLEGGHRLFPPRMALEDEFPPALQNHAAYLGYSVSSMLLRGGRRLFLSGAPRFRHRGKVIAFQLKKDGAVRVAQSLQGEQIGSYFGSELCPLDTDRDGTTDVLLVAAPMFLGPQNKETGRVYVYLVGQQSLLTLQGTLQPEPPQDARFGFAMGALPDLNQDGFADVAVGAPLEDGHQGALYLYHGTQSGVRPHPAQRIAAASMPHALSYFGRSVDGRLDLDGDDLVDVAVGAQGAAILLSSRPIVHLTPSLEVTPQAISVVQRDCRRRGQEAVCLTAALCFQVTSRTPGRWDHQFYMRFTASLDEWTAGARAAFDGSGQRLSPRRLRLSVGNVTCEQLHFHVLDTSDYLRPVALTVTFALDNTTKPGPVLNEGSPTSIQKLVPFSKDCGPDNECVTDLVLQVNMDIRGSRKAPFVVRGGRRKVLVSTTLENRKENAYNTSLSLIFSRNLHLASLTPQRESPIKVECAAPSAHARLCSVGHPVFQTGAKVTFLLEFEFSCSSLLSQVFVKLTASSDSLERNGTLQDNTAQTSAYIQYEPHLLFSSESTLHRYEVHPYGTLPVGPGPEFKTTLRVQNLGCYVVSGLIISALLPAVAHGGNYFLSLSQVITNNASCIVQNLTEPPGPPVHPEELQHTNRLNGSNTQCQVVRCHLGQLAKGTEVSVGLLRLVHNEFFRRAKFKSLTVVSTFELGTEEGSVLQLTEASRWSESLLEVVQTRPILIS
T2 sequence (P05556 21-728, chain 2 of 2): as the sequence (P05556 21-728, chain 2 of 2) above
T1 sequence (Q9UKX5 23-1141, chain 1 of 2): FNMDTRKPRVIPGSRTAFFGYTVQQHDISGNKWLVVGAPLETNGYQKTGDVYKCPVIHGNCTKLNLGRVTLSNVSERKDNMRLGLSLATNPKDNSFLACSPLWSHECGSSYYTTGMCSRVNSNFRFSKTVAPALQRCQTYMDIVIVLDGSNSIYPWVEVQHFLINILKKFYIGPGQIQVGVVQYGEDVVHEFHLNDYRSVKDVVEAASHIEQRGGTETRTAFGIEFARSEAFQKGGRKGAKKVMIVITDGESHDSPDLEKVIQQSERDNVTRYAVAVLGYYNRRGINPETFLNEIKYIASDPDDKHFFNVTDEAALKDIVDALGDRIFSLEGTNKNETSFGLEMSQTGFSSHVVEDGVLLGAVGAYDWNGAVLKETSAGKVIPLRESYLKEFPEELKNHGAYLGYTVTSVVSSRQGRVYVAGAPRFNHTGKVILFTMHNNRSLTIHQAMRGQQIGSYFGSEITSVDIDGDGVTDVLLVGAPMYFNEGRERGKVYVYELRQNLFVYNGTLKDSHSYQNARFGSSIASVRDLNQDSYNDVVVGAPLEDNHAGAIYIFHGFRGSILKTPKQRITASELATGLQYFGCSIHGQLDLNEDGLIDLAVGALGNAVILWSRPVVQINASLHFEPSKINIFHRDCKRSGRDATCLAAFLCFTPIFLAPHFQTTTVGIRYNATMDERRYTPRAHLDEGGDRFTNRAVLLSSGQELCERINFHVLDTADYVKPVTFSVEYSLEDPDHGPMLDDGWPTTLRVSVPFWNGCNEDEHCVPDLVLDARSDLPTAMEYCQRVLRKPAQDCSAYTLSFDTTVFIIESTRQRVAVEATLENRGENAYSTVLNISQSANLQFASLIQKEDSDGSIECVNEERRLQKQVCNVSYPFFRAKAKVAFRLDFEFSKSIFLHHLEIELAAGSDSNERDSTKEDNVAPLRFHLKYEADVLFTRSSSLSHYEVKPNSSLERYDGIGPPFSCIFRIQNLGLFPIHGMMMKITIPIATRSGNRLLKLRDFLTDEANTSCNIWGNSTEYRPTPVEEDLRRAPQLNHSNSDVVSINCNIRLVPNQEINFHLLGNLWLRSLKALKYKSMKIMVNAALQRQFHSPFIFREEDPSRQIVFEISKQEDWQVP
T1 sequence (P05556 21-728, chain 2 of 2): as the sequence (P05556 21-728, chain 2 of 2) above
T3 sequence (P13612 35-977, chain 1 of 2): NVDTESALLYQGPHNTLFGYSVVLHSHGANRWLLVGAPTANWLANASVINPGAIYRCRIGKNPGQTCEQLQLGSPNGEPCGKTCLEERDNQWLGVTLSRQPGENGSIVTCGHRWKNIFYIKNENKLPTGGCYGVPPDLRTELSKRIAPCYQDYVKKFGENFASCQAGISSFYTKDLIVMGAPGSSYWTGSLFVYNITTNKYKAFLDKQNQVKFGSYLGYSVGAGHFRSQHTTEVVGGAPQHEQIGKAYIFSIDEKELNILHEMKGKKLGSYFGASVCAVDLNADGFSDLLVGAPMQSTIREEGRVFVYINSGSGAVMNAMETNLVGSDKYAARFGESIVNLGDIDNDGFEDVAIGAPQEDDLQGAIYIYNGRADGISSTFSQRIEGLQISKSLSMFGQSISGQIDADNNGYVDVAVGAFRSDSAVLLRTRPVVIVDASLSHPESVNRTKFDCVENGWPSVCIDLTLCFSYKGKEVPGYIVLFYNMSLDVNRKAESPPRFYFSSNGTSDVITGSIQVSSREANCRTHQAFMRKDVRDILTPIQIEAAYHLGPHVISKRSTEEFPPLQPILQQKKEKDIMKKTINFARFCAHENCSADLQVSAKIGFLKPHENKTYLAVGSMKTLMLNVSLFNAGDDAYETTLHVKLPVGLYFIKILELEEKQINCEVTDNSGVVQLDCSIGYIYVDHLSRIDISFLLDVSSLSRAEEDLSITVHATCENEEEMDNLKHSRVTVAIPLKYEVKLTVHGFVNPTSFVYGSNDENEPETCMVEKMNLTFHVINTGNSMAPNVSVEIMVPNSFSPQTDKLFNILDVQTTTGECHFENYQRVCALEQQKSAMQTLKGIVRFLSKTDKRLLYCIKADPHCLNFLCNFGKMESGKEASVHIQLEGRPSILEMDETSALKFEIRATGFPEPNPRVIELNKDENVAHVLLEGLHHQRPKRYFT
T3 sequence (P05556 21-728, chain 2 of 2): as the sequence (P05556 21-728, chain 2 of 2) above

B1: recombinant human Osteolectin (ligand, UniProt Q9Y240 22-323, looked up)
chain: ARGAEREWEGGWGGAQEEEREREALMLKHLQEALGLPAGRGDENPAGTVEGKEDWEMEEDQGEEEEEEATPTPSSGPSPSPTPEDIVTYILGRLAGLDAGLHQLHVRLHALDTRVVELTQGLRQLRNAAGDTRDAVQALQEAQGRAEREHGRLEGCLKGLRLGHKCFLLSRDFEAQAAAQARCTARGGSLAQPADRQQMEALTRYLRAALAPYNWPVWLGVHDRRAEGLYLFENGQRVSFFAWHRSPRPELGAQPSASPHPLSPDQPNGGTLENCVAQASDDGSWWDHDCQRRLYYVCEFPF
notes: Osteolectin/Clec11a, human; cDNA cloned into pcDNA3 with a C-terminal 1XFlag-tag; secreted into the culture medium; also called rhOln; Clec11a
Kd [1]: > 100 nM
Kd [2]: 0.3 nM
Kd [3]: 0.3 nM
Kd [4]: > 100 nM
Kd [5]: > 100 nM
